According to the DeepSol protein solubility set:

Test: soluble on expression in E. coli; label from the status in PepcDB or PDB records

| Sequence | soluble on expression in E. coli |
| --- | --- |
| MGSDKIHHHHHHMWEVRYLNAELLDLKLWGEGCRLYQIRQMGDDEICLIQTDDTPQESLCERWQVVYAERGAVQQLLFEFTDEAEACEFMYREIKRIKHPHLVGLFPTDAEAEQFCQVLTQLEIQFSHDPQGRVRVYDQEIFTVERHFGCQLPLRKWLSVPERIHVTLARLRKFDPYNCYAQITTNPPIGSEAKLSELEAEHRIKLPEVYRTFLLEVCNGGNWERLGHYWSAEEVMANNSAQLWNQPLPEFLAKLKAAKSGDWLTNPGNRQYPGLLRIVDWDNPVRDLFLTQEGYEVEIQGDWIRFCEFSPEQWLKDFLDDIQYGLFPIEGLLAFLRSGELIRDYPYFHTVNFARLLAETIGLNIDPELTNEQVKMSDEIDYKINQWRIENMGKMRYNFGFNAEQAEVRRQRILERLEYLYQLYS | not soluble |
| MSKLAELQAETREIIEDLLNDGSEPNALYIIEHHIAHHDFDLLEKIAVDAFKAGYEVSEAEEFKDDDGKPIFCFDIISEVELKAEIIDAQQKEILPLLEKHNGIYDGWGTYFEDPNADDDEYGDDGEFLDDEDEYGDDGEFFDDEDEEEPRVH | not soluble |
| MGSDKIHHHHHHMFEIKTDDFEGIEIVKLINTVSGEYASIIPSFGGNIHELVLQKHNILHDVIYTNKNKEELSGFYSNLYRGAKLNPFSNRIDKGSYIFENISYSIPLNDAGIHALHGFVWNKPFSITASKTSFEFATLTLSYTHPKDSADFPFSYTLLVTYKLCIEGLMVTTQITNTSPTAIPMGDGWHPYLTLGSSINTLKLQIPSVQKIETTDTLIPTGKIIEDISFFEPALLGERELDNAFVLDSSVEKAETLLFDEEEDLTLVVWQQTDTYPFVHVYTPSDRMSVAIEPCSAIPDAFNRNMIETTLKPAEKKSYVFGIQLR | not soluble |
| AYVITEPCIGTKDASCVEVCPVDCIHEGEDQYYIDPDVCIDCGACEAVCPVSAIYHEDFVPEEWKSYIQKNRDFFKK | soluble |
| MGSDKIHHHHHHMQRIAMISEHASPLASVGSVDSGGQNVYVAHLARQLGKSGYLVDVFTRRDKALLPDVVAFAPNVRVVHVPAGPAVFVPKEQLLSFMPAFGDSMVDFMRRDAIGYDVLHANFFMSGVAAMRAREVLDIPLVMTFHALGKVRRLHQGSADGFPDNRFEIEDELVRHADRVVAECPQDLDDLATLYGGDPERIDIVPCGFDEEEFAPLDRAEARRALDWDADVFTVLQLGRLVPRKGIDNVIRAIGHLRRDFRIPARLYVVGGNAEQPSVEATPEIGRLQGVADEAGVSDCVTFVGRRRRSQLCHFYSASDVFVTTPWYEPFGITPVEAMACGVPVVGADVGGIRSTVVDGETGYLVPPHAPEALADRLARLAGDRALARRMGAAGLQRAHANYTWMSVARTMEQVYARVMRAERPARRVAA | not soluble |
| MPTDEPSKRKSILPTIPTSLMLKKSNEALSDFERTFNDRVMDIFAENRRIDVEEFKKNAECFLNIIRSNKIDLNWGEGGESRYVTITRLMKILKTSPQSIKDLLPHNTVSNFVKITNYNLTIDITLLEELVRTVIHAEESYIKLLPFSENSTEISSYSLQDFVATHFIPIMIEEPENPVYYTAYAVGTIFFLLGARRRDCVYLKDLLASTLLLQLEECIHAENHCLSPPKIDVFTVAQFRTTLSEFRFLDSQRKGLLAPADLKFFRDGIFNEVFTKRIFEISITYEDGRIDFKAFVDFVTALKFRHTTASAKYHFEILDLKDDGLLDEEEIRSISSFQLQNLPDYVPEDNSVNPEVATAELRDMMRLNQNGITLEEFLANRMNSTFAGFLSNSDDYMKYERREQ | not soluble |
| MLQSNEYFSGKVKSIGFSSSSTGRASVGVMVEGEYTFSTAEPEEMTVISGALNVLLPDATDWQVYEAGSVFNVPGHSEFHLQVAEPTSYLCRYL | soluble |
| GQKESQTGKGMKIVTSFYPIYAMVKEVSGDLNDVRMIQSSSGIHSFEPSANDIAAIYDADVFVYHSHTLESWAGSLDPNLKKSKVKVLEASEGMTLERVPGLEDVEAGDGVDEKTLYDPHTWLDPEKAGEEAQIIADKLSEVDSEHKETYQKNAQAFIKKAQELTKKFQPKFEKATQKTFVTQHTAFSYLAKRFGLNQLGIAGISPEQEPSPRQLTEIQEFVKTYKVKTIFTESNASSKVAETLVKSTGVGLKTLNPLESDPQNDKTYLENLEENMSILAEELK | soluble |
| PNIEFFTLKTPDGSELDSVQVTGEDEEKKPMGERKFIITCIARDQNFINWIKDLNYTAKNLGATAISFNYRGVDYSRGLVWTENNLVDDILAQVQRLISLGADPKNICLDGMCIGGAVATIAAAKLHEKG | not soluble |
| GMATVRLLDDAEISTLPEVKAVFDDIRATRGSDFVNNIWRGLANDPALLKRTWEQVKTVMVGEGALDPLTREMIYLAVSTANSCSYCAHSHTAAARAKGMTPAQHAEVLAIIGLAAQTNALVTAMQIPVDEAFLVDGK | soluble |
| MSTTVEKIKAIEDEMARTQKNKATSFHLGQLKAKLAKLRRELLTSASSGSGGGAGIGFDVARTGVASVGFVGFPSVGKSTLLSKLTGTESEAAEYEFTTLVTVPGVIRYKGAKIQMLDLPGIIDGAKDGRGRGKQVIAVARTCNLLFIILDVNKPLHHKQIIEKELEGVGIRLNKTPPDILIKKKEKGGISITNTVPLTHLGNDEIRAVMSEYRINSAEIAFRCDATVDDLIDVLEASSRRYMPAIYVLNKIDSLSIEELELLYRIPNAVPISSGQDWNLDELLQVMWDRLNLVRIYTKPKGQIPDFTDPVVLRSDRCSVKDFCNQIHKSLVDDFRNALVYGSSVKHQPQYVGLSHILEDEDVVTILKK | soluble |
| MTISGISSDQPFIETIDTLMLGGFPVLSTTPSAFVASLYRSLIEERQQRVFFANTNFIVQCQSLRGRMYSERVCILNDGIGMDLAALFIHGRRFVSNLNGTDLIPYLCQHAPRPLRFFLLGAKPGVADMAAQMLCQLGQLVVGTCDGYAQFVATGEDLVESINASGADVLLVALGNPVQERWILDHDVQLRTPLVFGVGALFDFMSGNVRRAPLWVRRVRGEWLYRLLLEPRRLLKRYSWDLLRFFGVCLLRRREGD | not soluble |
| MASSKIVPLYQSMLNDLIRQIESGELVENAKLPSEQKLGEKYDVSRITVRRALAELENKDYIYKKQGQGSFVKNKEDIDLGIHYLDVRKAIENMNAVPEIRLEAFKLIVDGSESDVRKVMEINSDVYLYYLRYMVYADHRPVFHEQVYLPFERFPRIFNSEIVNNDLMPFLVKKYGLKASFFSHTQPALITKSNRKEFDLNVGDPMIYMQTRGIEEKEIIYYRKAAVVGNLIMYIVG | not soluble |
| MGSDKIHHHHHHMYPQRIEPQPGQESVWDYPRPPRLEDTSKHIQIIFNGVIIADTQNAKRVLETSHPPSYYIPPGDIKMEHLIPTPQSSFCEWKGLAGYYTIRVGDKEVQNAAWFYPNPTTAFASLRDHVAFYAHLMDACYVDGDQVEPQPGNFYGGWITKDVVGPFKGIPGSWGW | not soluble |
| MGSDKIHHHHHHMEIKQLRYFIEVAKREHISETALELNIAQSAISRQITLLEQELNVSLFKKQGRNITLTSEGKLLFNEALRIIEHLDSTIEQFQSHGLTKNKSIYIGYDESDVSHMLLPLIQTFHLQNDTHVIPSLLDHDTIINSVLNGNIDIGFTELTPEIRKHKQLHMLPLFEEHYHLYAPSDDPITMATHPPLIQFEHSHIYCLAPFAETVKKQLRKITKSDVYTISSQPLAQYLLRQKEGYIISSQNIHLPESKSWIDIKLDHTELKRTICAITKEPYTKSDIGILLTLIQQLMTKTSTFH | not soluble |
| MSKALASDEKDDWITHLKAISNVFTQVCTLSASEESAKKLAIKEREECLQELVELRAIAEAHDDVIQQFHLLLAANHQGDATSRQIFNDMKQEVGDNMERIQEHRLVEAKLNVEKRRNERMAKHINEVSKKSVMHLMATRFYARELAAMRQMMDLVRNAATIESAVKSKLWDEIEKENRLLRLNTLWLINRINSSDLGDAAFENGDDWQSSPRLVILMREHINQGLGLEITGGCDQFRPVVVTGKLKRSMADDDQLRVNDRILAIDGTFVTNTTTHAEVMEMLENESAKDFISLIVSQFDPTKYHEAHPNGKCHKFVSTPISGKADSGEDV | not soluble |
| MDPQGYFLWYQVEMPEDRVNDLARELRIRDNVRRVMVVASTTPGRYEVNIVLNPNLDQSQLALEKEIIQRALENYGARVEKVEELGLRRLAYPIAK | soluble |
